Consider one molecule from article PMC4372080 (Nature, 2014).

The assay addresses T1, TmrA-A591C (Thermus thermophilus, UniProt Q72J05 1-600, A591C).
T1 sequence (looked up): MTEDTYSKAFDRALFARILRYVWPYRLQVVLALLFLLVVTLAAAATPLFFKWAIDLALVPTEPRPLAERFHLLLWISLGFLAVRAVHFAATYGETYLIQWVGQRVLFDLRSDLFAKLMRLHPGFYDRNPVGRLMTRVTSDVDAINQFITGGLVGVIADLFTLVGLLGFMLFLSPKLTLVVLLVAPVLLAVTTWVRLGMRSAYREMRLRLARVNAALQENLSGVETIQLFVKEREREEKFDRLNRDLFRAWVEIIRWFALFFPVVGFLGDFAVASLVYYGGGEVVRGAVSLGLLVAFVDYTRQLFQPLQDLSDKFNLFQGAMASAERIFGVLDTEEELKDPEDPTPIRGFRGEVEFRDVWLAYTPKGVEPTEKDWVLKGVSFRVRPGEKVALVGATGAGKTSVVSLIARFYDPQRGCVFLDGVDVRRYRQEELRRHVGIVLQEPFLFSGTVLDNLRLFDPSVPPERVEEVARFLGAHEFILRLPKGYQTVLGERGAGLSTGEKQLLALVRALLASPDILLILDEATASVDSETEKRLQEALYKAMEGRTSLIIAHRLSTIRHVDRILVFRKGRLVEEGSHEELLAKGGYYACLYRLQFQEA
Nature of the assay: cross-linking.

B1: TmrB-A567C (natural protein, Thermus thermophilus, UniProt Q72J04 1-578, looked up)
chain: MTGRSAAPLLRRLWPYVGRYRWRYLWAVLAGLVSIFFFVLTPYFLRLAVDAVQAGRGFGVYALAIVASAALSGLLSYAMRRLAVVASRQVEYDLRRDLLHHLLTLDRDFYHKHRVGDLMNRLNTDLSAVREMVGPGILMGSRLSFLVLLAFLSMYAVNARLAFYLTLILPGIFLAMRFLLRLIDRRYREAQEVFDRISTLAQEAFSGIRVVKGYALERRMVAWFQDLNRLYVEKSLALARVEGPLHALLGFLMGFAFLTVLWAGGAMVVRGELSVGELVQFNAYLAQLTWPILGLGWVMALYQRGLTSLRRLFELLDEKPAIRDEDPLPLALEDLSGEVRFEGVGLKRDGRWLLRGLTLTIPEGMTLGITGRTGSGKSLLAALVPRLLDPSEGRVYVGGHEARRIPLAVLRKAVGVAPQEPFLFSETILENIAFGLDEVDRERVEWAARLAGIHEEILAFPKGYETVLGERGITLSGGQRQRVALARALAKRPKILILDDALSAVDAETEARILQGLKTVLGKQTTLLISHRTAALRHADWIIVLDGGRIVEEGTHESLLQAGGLYCEMDRLQKEVEA
As to B1, the binding result is given as “binds”.
